From patent US7238786B2, “Monoclonal antibody cPAM4” (Immunomedics, Inc., priority 2002, dated 2007)

System: PAM4 antigen
Assay: Competition with ^131I-mPAM4 binding to the antigen (FIG. 3)
Details: competing with ^131I-mPAM4 binding to the antigen
Text: A chimeric antibody is a recombinant protein that contains the variable domains including the complementarity determining regions (CDRs) of an antibody derived from one species while the constant domains of the antibody molecule is derived from those of a human antibody.

B1: cPAM4: chimeric PAM4: murine PAM4 variable domains with human light and heavy chain constant regions (antibody, V domains shown)
VL: DIQLTQSPAIMSASPGEKVTMTCSASSSVSSSYLYWYQQKPGSSPKLWIYSTSNLASGVPARFSGSGSGTSYSLTISSMEAEDAASYFCHQWNRYPYTFGGGTKLEIKR
VH: QVQLQESGPELVKPGASVKMSCKASGYTFPSYVLHWVKQKPGQGLEWIGYINPYNDGTQYNEKFKGKATLTSDKSSSTAYMELSRLTSEDSAVYYCARGFGGSYGFAYWGQGTLITVSA
binding activity compared to murine PAM4: comparable binding activity
